Experimental data reported in patent US20260295010 (published 2026).
Where a chain is given by its changes, count along the chain named. In names and notes the source's numbering stands. Several values for one entry are separate records, joined by “and”; a condition that tells them apart may be missing. Equal values may be shown once.

T1: IL-12RB2-hFc (human, UniProt Q99665)
T1 chain: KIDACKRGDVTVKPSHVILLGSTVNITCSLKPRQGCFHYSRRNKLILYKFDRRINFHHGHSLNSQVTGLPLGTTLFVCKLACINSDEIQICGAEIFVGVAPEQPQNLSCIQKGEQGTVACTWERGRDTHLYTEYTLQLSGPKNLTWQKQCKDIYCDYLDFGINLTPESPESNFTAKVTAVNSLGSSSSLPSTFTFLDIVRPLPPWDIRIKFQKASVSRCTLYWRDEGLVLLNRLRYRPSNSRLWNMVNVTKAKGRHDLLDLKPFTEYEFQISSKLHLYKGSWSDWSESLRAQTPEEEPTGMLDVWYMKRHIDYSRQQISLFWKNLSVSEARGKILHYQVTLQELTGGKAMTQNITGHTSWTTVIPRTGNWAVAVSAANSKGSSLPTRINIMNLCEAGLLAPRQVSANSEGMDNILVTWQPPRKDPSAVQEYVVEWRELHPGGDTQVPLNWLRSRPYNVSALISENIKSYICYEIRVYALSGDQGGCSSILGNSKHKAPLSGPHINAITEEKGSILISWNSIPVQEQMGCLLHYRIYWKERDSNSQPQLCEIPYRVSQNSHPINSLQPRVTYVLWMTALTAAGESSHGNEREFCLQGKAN

B1: IL-12p70 W16A (protein)
chain 1: MIWELKKDVYVVELDAYPDAPGEMVVLTCDTPEEDGITWTLDQSSEVLGSGKTLTIQVKEFGDAGQYTCHKGGEVLSHSLLLLHKKEDGIWSTDILKDQKEPKNKTFLRCEAKNYSGRFTCWWLTTISTDLTFSVKSSRGSSDPQGVTCGAATLSAERVRGDNKEYEYSVECQEDSACPAAEESLPIEVMVDAVHKLKYENYTSSFFIRDIIKPDPPKNLQLKPLKNSRQVEVSWEYPDTWSTPHSYFSLTFSVQVQGKSKREKKDRVFTDKTSATVICRKNASISVRAQDRYYSSSWSEWASVPCSGGGSHHHHHH
chain 2: MRNLPVATPDPGMFPSLHHSQNLLRAVSNMLQKARQTLEFYPCTSEEIDHEDITKDKTSTVEACLPLELTKNESCLNSRETSFITNGSSLASRKTSFMMALCLSSIYEDLKMYQVEFKTMNAKLLMDPKRQIFLDQNMLAVIDELMQALNFNSETVPQKSSLEEPDFYKTKIKLCILLHAFRIRAVTIDRVMSYLNAS
B2: IL-12p70 E87K,K196E,K198E (protein)
chain 1: B1 chain 1 with A16W, E87K, K196E, K198E
chain 2: B1 chain 2
B3: IL-12p70 K265Y (protein)
chain 1: B1 chain 1 with A16W, K265Y
chain 2: B1 chain 2
B4: IL-12p70 L197A (protein)
chain 1: B1 chain 1 with A16W, L197A
chain 2: B1 chain 2
B5: IL-12p70 K105E K265Y (protein)
chain 1: B1 chain 1 with A16W, K105E, K265Y
chain 2: B1 chain 2
B6: IL-12p70 K259Y K265Y (protein)
chain 1: B1 chain 1 with A16W, K259Y, K265Y
chain 2: B1 chain 2
B7: IL-12p70 K105E (protein)
chain 1: B1 chain 1 with A16W, K105E
chain 2: B1 chain 2
B8: IL-12p70 D94K (protein)
chain 1: B1 chain 1 with A16W, D94K
chain 2: B1 chain 2
B9: IL-12p70 K259Y (protein)
chain 1: B1 chain 1 with A16W, K259Y
chain 2: B1 chain 2
B10: IL-12p70 K105E K259Y K265Y (protein)
chain 1: B1 chain 1 with A16W, K105E, K259Y, K265Y
chain 2: B1 chain 2
B11: IL-12p70 K196E (protein)
chain 1: B1 chain 1 with A16W, K196E
chain 2: B1 chain 2
B12: IL-12p70 p40-HIS6_C253S / p35_C16S_C89S (protein)
chain 1: B1 chain 1 with A16W
chain 2: B1 chain 2

What follows are binders tested against T2, IL-12RB1-hFc (human, UniProt P42701) (assay: SPR, 25C).

| koff [s⁻¹] | Binder |
| --- | --- |
| 0.049 | B1 |
| 0.0705 | B2 |

Molecular target: T2, IL-12RB1-hFc
Assay: SPR, 25C
Remark: another data set of the same source

| Kd | Binder |
| --- | --- |
| 0.51 nM | B3 |
| 0.31 nM | B4 |
| 1.1 nM | B5 |
| 1.4 nM | B6 |
| 0.5 nM | B7 |
| 0.44 nM | B8 |
| 0.87 nM | B9 |
| 1.8 nM | B10 |
| 0.7 nM | B11 |
| 0.3 nM and 0.11 nM | B12 |

Molecular target: T1, IL-12RB2-hFc
Assay: SPR, 25C

| Kd | Binder |
| --- | --- |
| 4.9 nM | B3 |
| 2.3 nM | B4 |
| 16 nM | B1 |
| 1.6 nM | B5 |
| 7 nM | B6 |
| 1.1 nM | B7 |
| 1.9 nM | B8 |
| 4 nM | B9 |
| 4 nM | B10 |
| 2.7 nM | B11 |
| 2.5 nM and 2.4 nM | B12 |

Molecular target: T1, IL-12RB2-hFc
Assay: SPR, 25C
Remark: another data set of the same source

| Kd | Binder |
| --- | --- |
| 1.6 nM | B3 |
| 0.55 nM | B4 |
| 0.62 nM | B1 |
| 0.56 nM | B7 |
| 1.2 nM | B8 |
| 1.1 nM | B9 |
| 0.42 nM | B11 |
| 0.75 nM and 0.34 nM | B12 |
| 0.61 nM | B2 |

Molecular target: T2, IL-12RB1-hFc
Assay: SPR, 25C
Remark: another data set of the same source

| Kd [nM] | Binder |
| --- | --- |
| 0.11 | B3 |
| 0.05 | B4 |
| 0.13 | B7 |
| 0.75 | B8 |
| 0.08 | B9 |
| 0.15 | B11 |
| 0.04 | B12 |
